Assay results from US12448442B2, “Treatment of T cell lymphoma” (INNATE PHARMA, priority 2019, dated 2025).

Assays:
RAJI-KIR3DL2 cells = assay: KIR3DL2 surface expression by flow cytometry on RAJI-KIR3DL2 cells; assay type: cell-based; conditions: RAJI-KIR3DL2, same experimental conditions
Procedure: (§1) RAJI-KIR3DL2 (48 hour incubation) (FIG. 2, left hand panel) or Hut 78 ([…]; 24 hour incubation (FIG. 2, right hand panel) were incubated with ascending doses of gemcitabine and oxaliplatin. Median intensity of fluorescence of KIR3DL2 on tumor cell line surface was analyzed by flow cytometry.
(§2) Briefly, Hut78 cells (Sezary Syndrome cell line) or RAJI-KIR3DL2 cells (RAJI B-NHL cell line transfected with human KIR3DL2 were incubated with ascending doses of gemcitabine and oxaliplatin. Median intensity of fluorescence of KIR3DL2 on tumor cell line surface was analyzed by flow cytometry.

Hut78 cells = assay: KIR3DL2 surface expression by flow cytometry on Hut78 cells; assay type: cell-based; conditions: Hut78 / TCL cells
Procedure: as §1, §2

[1] = test system: KIR3DL2-expressing Sézary Syndrome cell line (Hut 78); assay: In vitro cellular cytotoxicity (ADCC) assay with allogeneic NK cells and Hut 78 cells, with increasing concentrations of anti-KIR3DL2 antibody; assay type: cell-based; conditions: chemotherapeutic agent added to lacutamab, allogeneic NK cells, FIG. 1
Procedure: Consequently, we sought to evaluate whether chemotherapeutic agents affect the NK cell-mediated ADCC activity of humanized 2B12 antibody lacutamab having human IgG1 isotype and the VH and VL amino acid sequences shown in SEQ ID NOS: 49 and 44, respectively. Chemotherapeutic agents were added, alone or in combination, to an in vitro cellular cytotoxicity (ADCC) assay with allogeneic NK cells and KIR3DL2-expressing Sézary Syndrome cell line (Hut 78), in presence of increasing concentrations of the anti-KIR3DL2 antibody.

RAJI-KIR3DL2 = assay type: in vivo; conditions: twice a week; antibody 0.3 μg per injection, gemcitabine 50 mg/kg, oxaliplatin 5 mg/kg; FIG. 3
From the text: A xenograft model in the CB17-SCID mouse whereby the immunocompromised mouse strain that retains fully functional NK cells and macrophages. […] The B-NHL cell line RAJI was transfected to stably express KIR3DL2 (RAJI-KIR3DL2), and the transfectants were inoculated (5×10^6 cells) to the SCID mice by IV thereby providing a disseminated tumor model. Initially, individual doses of gemcitabine and oxaliplatin were established in this xenograft model.

refractory SS patients = assay: Clinical trials of single agent IPH4102 in refractory Sézary Syndrome patients; assay type: in vivo, human; conditions: repeated administrations of single agent
From the text: Antibodies that specifically bind to KIR3DL2 are well known in the art. Innate Pharma for example have described numerous anti-KIR3DL2 antibodies directed to a range of different epitopes on KIR3DL2, e.g., antibodies 15C11, 19H12, 22B2, 18B10, 12B11, 13H1, 10F6, 2B12, 18C6, 9E10, 10G5, 13H1, 5H1, 1E2, 1C3 and 20E9 described in PCT publication nos. WO2014/044681 and WO2014/044686. […] These encouraging results, moreover with few side effects and the ability to deplete malignant KIR3DL2-expressing cells without causing the depletion of healthy KIR3DL2-expressing NK and T cells provides an important advance in treating TCLs.

KIR3DL2 [2] = biological target: T1, KIR3DL2 (Homo sapiens, UniProt P43630); design: host or cells: tumor cells (not further named); conditions: into cells / tumor cells; cited from earlier work
T1 sequence (P43630 22-455): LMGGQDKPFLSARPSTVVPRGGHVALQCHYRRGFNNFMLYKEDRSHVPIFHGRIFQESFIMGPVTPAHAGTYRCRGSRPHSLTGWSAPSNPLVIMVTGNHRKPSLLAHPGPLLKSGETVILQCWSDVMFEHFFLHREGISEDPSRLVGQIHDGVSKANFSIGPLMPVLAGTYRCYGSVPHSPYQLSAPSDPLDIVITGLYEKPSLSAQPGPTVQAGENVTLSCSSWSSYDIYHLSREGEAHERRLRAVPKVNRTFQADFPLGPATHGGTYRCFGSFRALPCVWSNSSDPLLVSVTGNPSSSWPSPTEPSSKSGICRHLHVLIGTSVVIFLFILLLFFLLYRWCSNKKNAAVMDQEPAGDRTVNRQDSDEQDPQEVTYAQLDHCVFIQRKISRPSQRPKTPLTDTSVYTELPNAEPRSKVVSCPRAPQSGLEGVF

KIR3DL2 [3] = biological target: T1, KIR3DL2; conditions: cited from earlier work
human KIR3DL1 = human KIR3DL1 (Homo sapiens, UniProt P43629); conditions: cited from earlier work
human KIR3DL1, sequence (P43629 22-444): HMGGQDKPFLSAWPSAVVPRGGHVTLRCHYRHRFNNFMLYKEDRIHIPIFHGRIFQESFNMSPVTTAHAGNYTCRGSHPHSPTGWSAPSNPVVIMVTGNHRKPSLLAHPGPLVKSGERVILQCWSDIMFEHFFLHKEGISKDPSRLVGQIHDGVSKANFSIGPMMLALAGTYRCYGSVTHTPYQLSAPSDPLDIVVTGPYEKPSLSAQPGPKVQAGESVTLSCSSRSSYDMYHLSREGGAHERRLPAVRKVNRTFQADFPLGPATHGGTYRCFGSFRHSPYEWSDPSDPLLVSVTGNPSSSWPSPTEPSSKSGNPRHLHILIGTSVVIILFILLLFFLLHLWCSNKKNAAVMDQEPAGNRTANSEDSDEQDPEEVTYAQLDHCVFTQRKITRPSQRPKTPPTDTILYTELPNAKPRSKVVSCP

O=P1(N(CCCl)CCCl)NCCCO1 (stereo not shown) [cyclophosphamide]
effect on KIR3DL2 expression (RAJI-KIR3DL2 cells): did not increase KIR3DL2 expression
effect on KIR3DL2 expression (Hut78 cells): did not increase KIR3DL2 expression

Nc1ccn([C@@H]2O[C@H](CO)[C@@H](O)C2(F)F)c(=O)n1 [gemcitabine]
effect on anti-KIR3DL2 antibody-induced ADCC / anti-tumor activity against HUT78 [1]: enhanced

O=C1[O][Pt]2([NH][C@@H]3CCCC[C@H]3[NH]2)[O]C1=O [oxaliplatin]
effect on anti-KIR3DL2 antibody-induced ADCC / anti-tumor activity against HUT78 [1]: enhanced
anti-tumor activity in vivo (RAJI-KIR3DL2): very limited, if any, anti-tumor effect

B1: IPH4102: humanized 2B12 anti-KIR3DL2 antibody, human IgG1, VH SEQ ID NO: 49 and VL SEQ ID NO: 44 (antibody, V domains shown)
VH: QIQLVQSGSELKKPGASVKVSCKASGYTFTTAGMQWVRQAPGQGLEWIGWINSHSGVPKYAEDFKGRFVFSLDTSVSTAYLQISSLKAEDTAVYFCARGGDEGVMDYWGQGTTVTVSS
VL: DIQMTQSPSFLSASVGDRVTITCKASQDVSTAVAWYQQKPGQPPKLLIYWTSTRHTGVPDRFSGSGSGTDYTLTISSLQAEDVAVYYCQQHYSTPWTFGGGTKVEIK
median duration of response (DoR) (refractory SS patients): 13.8 months
median progression-free survival (PFS) (refractory SS patients): 11.7 months
overall response rate (ORR) (refractory SS patients): 42.9%

B2: 19H12: anti-KIR3DL2 antibody, VH SEQ ID NO: 5, VL SEQ ID NO: 6 (antibody, V domains shown)
VH: QIQLVQSGPELKKPGETVKISCKASGYTFTNFGMNWVKQAPGKGLKWMGWINTYTGEPTYADDFKGRFAFSLETSASTAYLQINNLKNEDMATYFCARNGNFGYYFDYWGQGTTLTVSS
VL: DVLMTQTPLSLPVSLGDQASFSCRSSQNIVHSNGNTYLEWYLQKPGQSPSLLIYKVSNRFSGVPDRFSGSGSGTDFTLKITRVEAEDLGVYYCFQGSHVPFTFGSGTKLEIK
modifications: mus musculus
internalization via KIR3DL2 (KIR3DL2 [2]): capable of being internalized

B3: 12B11: anti-KIR3DL2 antibody, VH SEQ ID NO: 16, VL SEQ ID NO: 17 (antibody, listed as Mus musculus, V domains shown)
VH: QLVQSGPELKNPGETVKISCKASGYTFTNYGMNWVKQAPGKGLKWMGWINTYTGEPTYADDFKGRFAFSLETSASTAYLQINNLKNEDTATYFCAHGPWLAYWGQGTLVTVS
VL: DIKMTQSPSSMYASLGERVTITCKASQDINVYLSWFQQKPGKSPKTLIYRAIRLVDGVPSRFSGSGSGQDYSLTISSLDYEDMGIYYCLQYDELPYTFGGGTKLEIE
internalization via KIR3DL2 (KIR3DL2 [2]): capable of being internalized

B4: 2B12: anti-KIR3DL2 antibody, VH SEQ ID NO: 32, VL SEQ ID NO: 33 (antibody, listed as Mus musculus, V domains shown)
VH: QIQLVQSGPELKKPGETVRISCKASGYTFTTAGMQWVQKTPGKGLKWIGWINSHSGVPKYAEDFKGRFAFSLETSASTAYLQISTLKNEDTATYFCARGGDEGVMDYWGQGTSVTVS
VL: DIVMTQSHKFMSTSLGDRVSFTCKASQDVSTAVAWYQQKPGQSPKLLIYWTSTRHTGVPDRFTGSGSGTDYTLTISSVQAEDLALYYCQQHYSTPWTFGGGTKLEIK
internalization via KIR3DL2 (KIR3DL2 [2]): do not induce any KIR3DL2 internalization

B5: AZ158: antibody binding human KIR3DL2 and KIR3DL1, VH SEQ ID NO: 3, VL SEQ ID NO: 4 (antibody, V domains shown)
VH: QVQLKESGPGLVAPSQSLSITCTVSGFSLTSFGVHWVRQPPGKGLEWLGVIWAGGSTNYNSALMSRLSISKDNSKSQVFLKMNSLQNDDTAMYYCARGNSNHYVSSFYYFDYWGQGTTLTVSS
VL: DIQMTQSPSSLSASLGGKVTITCKASQDINKYIAWYQHKPGKGPRLLIHYTSTLQPGIPSRFSGSGSGRDYSFSISNLEPEDITTYYCLQYDNLWTFGGGTKLEIK
modifications: mus musculus
binding to KIR3DL2 (KIR3DL2 [3]): binds
binding to KIR3DL1 (human KIR3DL1): binds
